{"source": "patent US6551840B2", "about": "“Method of screening TGF-β-inhibiting substances” (Chugai Seiyaku Kabushiki Kaisha, priority 1997, dated 2003)", "molecules": {"B1": {"name": "TAK1-K63W: catalytically inactive TAK1 polypeptide mutant in which the lysine residue at position 63 has been replaced with the tryptophan residue (protein, UniProt O43318 1-606, looked up, variant K63W)", "Mitogen-activated protein …": "MSTASAASSSSSSSAGEMIEAPSQVLNFEEIDYKEIEVEEVVGRGAFGVVCKAKWRAKDVAIWQIESESERKAFIVELRQLSRVNHPNIVKLYGACLNPVCLVMEYAEGGSLYNVLHGAEPLPYYTAAHAMSWCLQCSQGVAYLHSMQPKALIHRDLKPPNLLLVAGGTVLKICDFGTACDIQTHMTNNKGSAAWMAPEVFEGSNYSEKCDVFSWGIILWEVITRRKPFDEIGGPAFRIMWAVHNGTRPPLIKNLPKPIESLMTRCWSKDPSQRPSMEEIVKIMTHLMRYFPGADEPLQYPCQYSDEGQSNSATSTGSFMDIASTNTSNKSDTNMEQVPATNDTIKRLESKLLKNQAKQQSESGRLSLGASRGSSVESLPPTSEGKRMSADMSEIEARIAATTAYSKPKRGHRKTASFGNILDVPEIVISGNGQPRRRSIQDLTVTGTEPGQVSSRSSSPSVRMITTSGPTSEKPTRSHPWTPDDSTDTNGSDNSIPMAYLTLDHQLQPLAPCPNSKESMAVFEQHCKMAQEYMKVQTEIALLLQRKQELVAELDQDEKDQQNTSRLVQEHKKLLDENKSLSTYYQQCKKQLEVIRSQQQKRQGTS"}}, "key": {"Mv1Lu cell [1]": {"test_system": "Mv1Lu cell", "experiment": "PAI-1 ELISA in culture supernatant of Mv1Lu cells with or without TGF-β1", "format": "cell-based, mink", "settings": "Mv1Lu cells with forced expression; 10 ng/ml TGF-β1, 24 hours; control cells about 16-fold", "description": "Accordingly, TAK1DN was subjected to forced expression in the Mv1Lu cell to investigate the effects of TGF-β stimulation on PAI-1 expression. The TAK1DN expression vector used was the above-mentioned TAK1DN, and the TAK1 polypeptide mutant TAK1-K63W expression vector was constructed by inserting a gene (Yamaguchi K. et al., (1995) Science 270, 2008-2011) encoding the TAK1 polypeptide mutant TAK1-K63W in which the lysine residue at position 63 has been replaced with the tryptophan residue at the EcoRI and NotI restriction enzyme site of pCOS1 to give pTAK1K63W.\nThe Mv1Lu cells into which pTAK1Dn had been introduced (Mv/DN2), the cells into which pTAK1K63W had been introduced (Mv/KN7), and the control cells into which pCOS1 containing no inserted genes (Mv/NEO) had been introduced were each incubated in a low-serum medium (MEM medium containing 0.2% FBS; manufactured by GIBCO-BRL) with or without 10 ng/ml of TGF-β1 for 24 hours. The amount of PAI-1 in the culture supernatant was determined using the PAI-1 Quantative ELISA (manufactured by CALBIOCHEM)."}, "Mv1Lu cell [2]": {"test_system": "Mv1Lu cell", "settings": "Yamaguchi K. et al., (1995) Science 270, 2008-2011; cited from earlier work"}}, "data": [{"molecule": "B1", "values": [{"measurement": "increase in PAI-1 in the culture supernatant by TGF-β1 addition", "setting": "Mv1Lu cell [1]", "result": "about 6.5 fold"}, {"measurement": "effect of forced expression on PAI-1 expression stimulated by TGF-β", "setting": "Mv1Lu cell [2]", "result": "PAI-1 expression is inhibited"}]}]}
